Test results reported in article PMC11026164 (Nature Nanotechnology, 2024).

How the values were obtained:
[1] = Appearance and solubility by optical density at pH 3 to 9; type: physicochemical; details: 1 mg/ml solutions (5 mL), pH raised from 3 to 9 with 1 M NaOH, mean of n = 3 independent batches
Protocol: 1 mg/ml solutions (5 mL total volume) were prepared for each solution. pH was adjusted to pH 3 with 1 M HCl using a pH meter. Images were collected as the pH was raised by the addition of 1 M NaOH. Images show the product solution at each pH. […] Data expressed as the mean ± s.d. (n = 3 independent batches). ζ-potential of each sample was measured using DLS. Data expressed as the mean ± s.d. (n = 3 independent batches).

[2] = Blood pharmacokinetics of 14C-INS in mice; type: in vivo, C57BL/6J mice; details: subcutaneous 2 IU kg^–1, 14C-INS in blood, n = 3
Protocol: (§1) For biodistribution studies, the mice were not fasted before either a subcutaneous injection of ^14C-INS (100,000 DPM, 2 IU kg^–1) or a gavage of QD-^14C-INS–CS/GS or ^14C-INS (100,000 DPM, 20 IU kg^–1). Gavage was performed using an oesophageal gavage needle and delivered in a single rapid dose (100 µl). Blood samples were collected from a tail snip (20 µl) over 0–8 h. Mice were euthanized by a single intraperitoneal injection of 100 mg kg^–1 ketamine and 10 mg kg^–1 xylazine in saline at 0.5, 2.0 and 24.0 h post-gavage. Then, 200–250 mg of tissue samples was collected from the liver, spleen, kidneys, lungs, muscles, fat and small intestine (duodenum) along with 100 μl of blood.
(§2) Tissue and blood samples were weighed, mixed with 1 ml solvable solution and incubated at 60 °C for 4 h to dissolve. Then, 0.2 ml of 30% H2O2 was added to reduce the dark colour saturation. […] Samples were mixed with 10 ml scintillation fluid (five measurements per sample). Baseline measurements were collected from control mice (n = 3) that were not treated with radioactive samples. Data were collected and analysed as disintegrations per minute.

[3] = Tissue biodistribution of 14C-INS in mice; type: in vivo, C57BL/6J mice; details: for tissue distribution, in words: SC-INS 2 IU kg^–1 s.c., QD-INS–CS/GS and Oral-INS 20 IU kg^–1 by gavage
Protocol: as §1, §2

[4] = system: C57BL/6J mice; assay: Oral glucose tolerance test (oGTT); type: in vivo; details: n = 5; for effect of constituents on oGTT AUC: QD 0.6 µg, QD-INS 0.6 µg, 20 IU/kg, CS/GS 10 µg, QD-CS/GS 0.6 µg, 10 µg, insulin alone given orally 100 IU/kg, 15 min before glucose
Protocol: oGTT was performed following a 4-h fast. BG was measured using a handheld glucometer using Accu-Chek proforma strips. Blood was collected following a tail snip. BG was collected prior and for 90 min after an oral bolus of 2 g kg^–1 glucose solution. The AUC was determined based on the mmol l^–1 × min.

[5] = system: NOD/ShiLtJ mice; assay: Insulin tolerance test (ITT) in NOD diabetic mice; type: in vivo
Protocol: Ten-week-old female NOD/ShiLtJ mice were obtained from the Animal Resource Centre in Perth. Animals were housed at the ANZAC Research Institute animal house on a 12-h light/dark cycle and provided with ad libitum access to food and water; 20–25 °C; 50–60% relative humidity; and bedding, ventilated caging systems and enrichment as per the ARRIVE guidelines. NOD/ShiLtJ mice were monitored weekly for BG changes, with mice developing T1D between weeks 12 and 24 in 90% of female mice. Diabetic mice were identified following two repeat BG measurements at >11.1 mmol l^–1.
ITT was performed with/without a 4-h fast. BG was measured using a handheld glucometer using Accu-Chek proforma strips. Blood was collected from a tail snip. […] The AUC was determined based on mmol l^–1 × min.

[6] = system: NOD mice; assay: Two-week chronic dosing in NOD mice; type: in vivo, NOD/ShiLtJ mice; details: chronic 2-week subcutaneous dosing
Protocol: Early and moderate diabetic mice were given a single treatment of SC-INS (1 IU kg^–1) or QD-INS–CS/GS (25 IU kg^–1), whereas late diabetics were given 4 and 100 IU kg^–1, respectively. An ITT was performed with BG collected at 0.25, 0.50, 0.75 and 1.00 h. […] BG was recorded daily and was maintained below 11.1 mmol l^–1 for the duration of treatment. […] BG was recorded daily and was maintained between 15 and 25 mmol l^–1 for the duration of treatment. […] Data points, mean ± s.d. shown (n = 5 biologically independent animals; one-way ANOVA with Tukey’s correction (a) and two-tailed unpaired t-test; α = 0.05 (c, e and f)).

[7] = system: STZ-treated rats; assay: ITT in STZ-treated rats; type: in vivo, Wistar rats; details: SC-INS 5–40 IU kg^–1; QD-INS–CS/GS 10–150 IU kg^–1; n = 5
Protocol: After a month of acclimation and animal handling, rats were given a single intraperitoneal injection of STZ (65 mg kg^–1) and provided with high-glucose water (10%) for 2 days. Animals were monitored and BG checked for 10 days post-injection. Diabetic rats were identified following two repeat BG measurements at >11.1 mmol l^–1.
ITT was performed as above; rats were treated with 5–40 IU kg^–1 SC-INS or 10–150 IU kg^–1 QD-INS–CS/GS. All the ITT data presented in this manuscript used n = 5 mice per group.

[8] = system: STZ-treated rats; assay: Chronic dosing in STZ-treated rats; type: in vivo, Wistar rats; details: 40 IU kg^–1 day^–1 subcutaneous
Protocol: Rats were maintained on either treatment for 2–6 weeks, with BG measured morning and evening (prior and 1 h post-injection).
Following experimentation, the rats were euthanized by a single intraperitoneal injection of 75 mg kg^–1 ketamine and 10 mg kg^–1 xylazine in saline. Blood, liver and pancreas tissue samples were collected. Plasma was collected and analysed for biochemistry and lipid parameters as above.

[9] = Stability by NMR; type: physicochemical; details: 1 mg/ml in MQ water, 23 °C, 60% humidity with light exposure, 7 and 28 days
Protocol: Individual sample stock was prepared in 90% MQ water and 10% D2O at pH 7. For NMR data acquisition, 550 µl samples from each stock were transferred to a 5 mm NMR tube. All one-dimensional ^1H experiments (water suppression pulse sequence, zgesgp; time domain, 32 K; relaxation delay, 2 s; spectral width, 12.5 ppm; number of scans, 256) were collected on a Bruker 800 MHz spectrometer using a Z-gradient TCI probe at 298 K. Two-dimensional [^1H,^1H] NOESY spectra were collected on a 600 MHz spectrometer with a cryoprobe at 298 K. Data were collected and processed using TopSpin. The water offset was set to 4.697 ppm. Before Fourier transformation from the time domain to the frequency domain, the time-domain data were zero filled twice, and an exponential decay function with a line-broadening factor of 5 Hz was multiplied. Data were processed using TopSpin. For stability measurements, the samples were stored at a lab temperature of ~295 ± 2 K.
Extended Data Fig. 4 NMR characterization and stability of QD-INS–CS/GS and 2D [^1H,^1H]-NOESY NMR characterization of CS/GS. […] Stability of samples were evaluated at 1 mg/ml, in MQ water solution, 23 °C, 60% humidity with light exposure for 7 and 28 days. […] (b) Left panel: 2D [^1H, ^1H]-NOESY spectrum of maltose. Right panel: 2D [^1H, ^1H]-NOESY spectrum of chitosan and glucose (CS/GS) copolymer. […]

[10] = ζ-potential / isoelectric point by DLS (Zetasizer); type: physicochemical
Protocol: HD diameter, polydispersity index and ζ-potential were measured using the Zetasizer Nano ZS instrument (Malvern […]) at Sydney Analytical, the University of Sydney. CSIRO samples were measured on a Malvern Instruments Zetasizer Nano instrument ZEN3600 with a 4 mW 633 nm He–Ne gas laser. […] HD diameter and polydispersity index measurements were performed using backscatter (173°) data collection with three repeats of 12–15 measurements per sample. All the samples were analysed in disposable folded capillary cells. […] 1 mg/ml solutions (5 mL total volume) were prepared for each solution. pH was adjusted to pH 3 with 1 M HCl using a pH meter. Images were collected as the pH was raised by the addition of 1 M NaOH. Images show the product solution at each pH. […] Data expressed as the mean ± s.d. (n = 3 independent batches). ζ-potential of each sample was measured using DLS. Data expressed as the mean ± s.d. (n = 3 independent batches).

[11] = Insulin loading capacity on QDs (14C-INS, dialysis); type: physicochemical
Protocol: Three individual experiments (batches) were performed per group.

[12] = HPLC–MS of released insulin; type: physicochemical; details: release by hydrolysis for 28 days at 23 °C
Protocol: Cleavage of CS/GS and removal of QDs were promoted by enzyme co-incubation (i). […] Release was promoted by hydrolysis for 28 days at 23 °C. […] Oleic acid was used as a positive control of cellular uptake and activity. […] Data points, mean ± s.d. shown [n = 3 independent experiments (a and b); n = 3 biologically independent cells (d and e) and one-way ANOVA with Tukey’s correction; α = 0.05]. a and b created with BioRender.com.

[13] = 0.5 h, subcutaneous 2 IU kg^–1, n = 3
[14] = 2 h, subcutaneous 2 IU kg^–1, n = 3

In the case of insulin human recombinant, the “pH at which the material is insoluble” value [1] is reported as 5, the Cmax [2] is reported as 0.1 IU ml^–1 and the Tmax [2] is reported as 15 min. For the same substance, the T½ [2] was 15 min, the “distribution in the blood” value [3, 13] was 40% and the “distribution in the liver” value [3, 13] was 40%. The “distribution in the muscles/fat” value [3, 13] was 20%, the “distribution in the kidneys” value [3, 14] was 10% and the “distribution in the liver” value [3, 14] was 50%. For the same substance, the “distribution in the small intestine” value [3, 14] was 20%, the “tissue distribution, in words” value ([3]; listed as Oral-INS) was “remained in the small intestine” and the “tissue distribution, in words” value ([3]; listed as SC-INS) was “greater distribution in the muscles and fat”. For the same substance, the “effect of constituents on oGTT AUC” value [4] was “No effect on AUC”, the “hypoglycaemia (BG < 3.0 mmol l^–1)” value ([4]; high dose 5 IU kg^–1 subcutaneous) was “induced hypoglycaemia” and the “effect of escalating dosage on BG in ITT” value ([5]; SC-INS 0–2 IU kg^–1, QD-INS–CS/GS 0–50 IU kg^–1 by gavage) was “dose-dependent reduction in BG”. The “time to decrease of BG” value ([5]; subcutaneous 1 IU kg^–1) was ≤ 15 min, the “reduction in ITT AUC” value ([5]; subcutaneous 1 IU kg^–1, single dose, n = 5) was 40% and the “time of return of BG to baseline post-treatment” value [6] was 8 h. For the same substance, the “dose dependence in ITT” value [7] was “dose-dependent effect”, the “time of return of BG to baseline” value [8] was ≤ 8 h and the “stability of samples by NMR” value [9] was “minimal changes”.
For “QD-INS: insulin bound to 3-MPA-capped Ag2S QDs by EDC/NHS chemical crosslinking”, the “ζ-potential at pH 7” value [10] was “negative”, the “ζ-potential between pH 3 and pH 6” value ([10]; n = 3 independent batches) was “near-zero” and the “maximum insulin retention (loading capacity of insulin onto QDs)” value ([11]; 14C-INS, 10 kDa dialysis, QDs 0.5–35.2 µg ml^–1, insulin 5.0 µg ml^–1, n = 3 batches) was 80%. For the same substance, the “insulin molecules per QD” value ([11]; based on the molar ratios) was 1–2, the “released insulin present as monomer” value [12] was 87.5% and the “effect of constituents on oGTT AUC” value [4] was “no differences compared to controls”.
